Target: RecA (UniProt P0A7G6)
Test: pulldown

Chain of RecA (P0A7G6 2-353): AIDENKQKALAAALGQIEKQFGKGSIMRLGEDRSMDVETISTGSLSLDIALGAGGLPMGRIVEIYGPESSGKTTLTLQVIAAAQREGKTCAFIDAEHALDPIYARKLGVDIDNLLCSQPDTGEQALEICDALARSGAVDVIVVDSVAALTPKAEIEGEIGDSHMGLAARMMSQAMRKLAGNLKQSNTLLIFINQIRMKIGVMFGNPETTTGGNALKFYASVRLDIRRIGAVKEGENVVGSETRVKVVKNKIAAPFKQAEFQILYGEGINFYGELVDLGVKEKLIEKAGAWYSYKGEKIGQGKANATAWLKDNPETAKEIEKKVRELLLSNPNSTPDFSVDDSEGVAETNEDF

## lambda 1000-mer (6631-7630) nick-translated probe
bio-14-dATP incorporated, capture of 32P lambda DNA target, 3.7% without RecA, ATPgammaS, Mg acetate
  activity: 45.9%

## phiX174 RFI nick-translated probe
Capture of 32P lambda target with heterologous non-biotinylated probe, 3.1% without RecA (background)
  activity: 3.6%

— patent US5670316
